# Reference: paper PMC314469, “Protein Interaction Networks by Proteome Peptide Scanning” (PLoS Biology, 2004)
# T1: amphyphisin SH3 (AMPH_HUMAN), P49418
# T1 chain: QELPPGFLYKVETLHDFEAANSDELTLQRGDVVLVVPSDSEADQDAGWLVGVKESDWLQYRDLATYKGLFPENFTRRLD
# Target: T1, amphyphisin SH3 (AMPH_HUMAN), P49418
# Test: SPOT array
row,Binder,"normalised SPOT signal, Boehringer light units (BLU); mean over the file's lines of this peptide"
1,SSKIFRRPSLPSIS [Q13370 310-323],12.2
2,SSFIPKRPIPTIKD [Q12882 910-923],17.6
3,SSGGFRRPEELGRV [P09529 57-70],41.8
4,SAPPPQRPFRVSDH [Q9UHD4 30-43],4530
5,RVPIPPRPVKPDYR [Q9UD05 286-299],646
6,AVSAPKRPRVAPLQ [Q92817 837-850],59
7,RYLILKRPGFQEHD [Q9NP17 122-135],23.9
8,SALRPKRPETPKQT [Q9UIG2 1726-1739],588
9,RTEGFWRPLRGVNV [Q9NYZ2 96-109],952
10,RVLHLRRPGGPPHV [Q96DQ6 175-188],21.6
11,SAPSPARPARTQGP [Q9NPI5 198-211],4310
12,AVWSPRRPTATRDP [Q8WU34 71-84],36.2
13,SASEFDRPLRPIVV [O76074 102-115],131
14,SAGKFKRPIIAGME [P21453 335-348],42.5
15,AVQFLRRPKTITRV [O95473 15-28],15.3
16,SAHTPGRPPRVTKD [Q9UGB8 794-807],1950
17,RVHRLPRPLKQRML [Q9UQ05 500-513],165
18,RTPTPDRPPRSAWG [Q9H0S3 22-35],2030
19,RVEELSRPKRFYLE [Q9P2T0 193-206],225
20,RVPIPPRPTRPHVQ [Q07912 741-754],9630
21,RYWAISRPFRYKRK [P21918 138-151],1070

row,Binder,"normalised SPOT signal, Boehringer light units (BLU); mean over the file's lines of this peptide"
1,RVSWIRRPPGKALE [P01814 35-48],15
2,SAGRPKRPHARRAL [Q14764 501-514],24.8
3,RTLGLRRPVHSSSI [Q9P1Y6 400-413],20.6
4,AWARPPKPPTFGEF [Q9Y3X0 319-333],21.8
5,SSRAPPRPAKTTDP [Q9P2Q1 364-377],378
6,SAPPPPRPPEEPAP [Q96BQ9 4-18],85.5
7,SSQRPGRPARVALP [P98161 2194-2207],2220
8,RYLGITRPHKMLTT [Q99412 18-31],102
9,RYLAISRPLRARVL [O43193 136-149],1320
10,RTPAPRRPLQRRRP [Q9GZW5 220-233],789
11,SAVVLKRPEILTDE [Q06055 26-39],42.7
12,RTKRFKRPQFSPTG [Q96CC9 51-64],33.7
13,SAKELRRPPPRSPQ [Q9NPN8 118-131],33.8
14,RWKEPKRPRPLKLS [Q92536 412-425],56.9
15,SSKNIYRPDKFLQS [P28907 274-287],34
16,RVLSLLRPWRPLRA [Q9NV38 3-16],1430
17,SAPGPRRPAPALLA [Q96DL6 316-329],412
18,SASGIKRPMASEVP [Q99754 28-41],17.6
19,SSNFPRRPDSGDVT [Q9BYH1 392-405],29.9
20,RVIGLLRPLKDVTV [Q10466 5697-5710],205
21,RVKYIKRPGAVLEA [O00763 939-952],27.1

# Target: endophilin SH3 (SH3G2_HUMAN), Q99962
# Test: SPOT array
row,Binder,"normalised SPOT signal, Boehringer light units (BLU); mean over the file's lines of this peptide"
1,SSKIFRRPSLPSIS [Q13370 310-323],40.4
2,SSFIPKRPIPTIKD [Q12882 910-923],514
3,SSGGFRRPEELGRV [P09529 57-70],11.4
4,SAPPPQRPFRVSDH [Q9UHD4 30-43],5270
5,RVPIPPRPVKPDYR [Q9UD05 286-299],6030
6,AVSAPKRPRVAPLQ [Q92817 837-850],240
7,RYLILKRPGFQEHD [Q9NP17 122-135],228
8,SALRPKRPETPKQT [Q9UIG2 1726-1739],723
9,RTEGFWRPLRGVNV [Q9NYZ2 96-109],107
10,RVLHLRRPGGPPHV [Q96DQ6 175-188],55.3
11,SAPSPARPARTQGP [Q9NPI5 198-211],4590
12,AVWSPRRPTATRDP [Q8WU34 71-84],97.9
13,SASEFDRPLRPIVV [O76074 102-115],54
14,SAGKFKRPIIAGME [P21453 335-348],46.1
15,AVQFLRRPKTITRV [O95473 15-28],117
16,SAHTPGRPPRVTKD [Q9UGB8 794-807],268
17,RVHRLPRPLKQRML [Q9UQ05 500-513],121
18,RTPTPDRPPRSAWG [Q9H0S3 22-35],395
19,RVEELSRPKRFYLE [Q9P2T0 193-206],210
20,RVPIPPRPTRPHVQ [Q07912 741-754],19700
21,RYWAISRPFRYKRK [P21918 138-151],417

row,Binder,"normalised SPOT signal, Boehringer light units (BLU); mean over the file's lines of this peptide"
1,RVSWIRRPPGKALE [P01814 35-48],326
2,SAGRPKRPHARRAL [Q14764 501-514],702
3,RTLGLRRPVHSSSI [Q9P1Y6 400-413],49.2
4,AWARPPKPPTFGEF [Q9Y3X0 319-333],716
5,SSRAPPRPAKTTDP [Q9P2Q1 364-377],279
6,SAPPPPRPPEEPAP [Q96BQ9 4-18],65.5
7,SSQRPGRPARVALP [P98161 2194-2207],13500
8,RYLGITRPHKMLTT [Q99412 18-31],231
9,RYLAISRPLRARVL [O43193 136-149],943
10,RTPAPRRPLQRRRP [Q9GZW5 220-233],12000
11,SAVVLKRPEILTDE [Q06055 26-39],38.4
12,RTKRFKRPQFSPTG [Q96CC9 51-64],12.5
13,SAKELRRPPPRSPQ [Q9NPN8 118-131],116
14,RWKEPKRPRPLKLS [Q92536 412-425],419
15,SSKNIYRPDKFLQS [P28907 274-287],63.6
16,RVLSLLRPWRPLRA [Q9NV38 3-16],366
17,SAPGPRRPAPALLA [Q96DL6 316-329],3420
18,SASGIKRPMASEVP [Q99754 28-41],81.2
19,SSNFPRRPDSGDVT [Q9BYH1 392-405],67.7
20,RVIGLLRPLKDVTV [Q10466 5697-5710],261
21,RVKYIKRPGAVLEA [O00763 939-952],36.2
